Assays:
[1] = substrate: C[C@@H](O)[C@H]1C(=O)N2C(C(=O)O)=C(S[C@@H]3CN[C@H](C(=O)N(C)C)C3)[C@H](C)[C@H]12; assay: (§1) Kcat/Km ratio of Pseudomonas aeruginosa IMP-1
[2] = substrate: C[C@@H](O)[C@H]1C(=O)N2C(C(=O)O)=C(S[C@@H]3CN[C@H](CNS(N)(=O)=O)C3)[C@H](C)[C@H]12; assay: as §1
[3] = substrate: CC(C)(O/N=C(\C(=O)N[C@@H]1C(=O)N2C(C(=O)[O-])=C(C[n+]3ccccc3)CS[C@H]12)c1csc(N)n1)C(=O)O; assay: as §1
[4] = substrate: O=C(Cc1cccs1)N[C@@H]1C(=O)N2C(C(=O)[O-])=C(C[n+]3ccccc3)CS[C@H]12; assay: as §1
[5] = substrate: CC1(C)S[C@@H]2[C@H](NC(=O)Cc3ccccc3)C(=O)N2[C@H]1C(=O)O; assay: as §1
[6] = substrate: C[C@@H](O)[C@H]1C(=O)N2C(C(=O)O)=C(SCCNC=N)C[C@H]12; assay: as §1
[7] = substrate: C[C@@H](O)[C@H]1C(=O)N2C(C(=O)O)=C(S[C@@H]3CN[C@H](C(=O)N(C)C)C3)[C@H](C)[C@H]12; assay: (§2) Activity of Pseudomonas aeruginosa IMP-1
[8] = substrate: C[C@@H](O)[C@H]1C(=O)N2C(C(=O)O)=C(S[C@@H]3CN[C@H](CNS(N)(=O)=O)C3)[C@H](C)[C@H]12; assay: as §2
[9] = substrate: CC(C)(O/N=C(\C(=O)N[C@@H]1C(=O)N2C(C(=O)[O-])=C(C[n+]3ccccc3)CS[C@H]12)c1csc(N)n1)C(=O)O; assay: as §2
[10] = substrate: O=C(Cc1cccs1)N[C@@H]1C(=O)N2C(C(=O)[O-])=C(C[n+]3ccccc3)CS[C@H]12; assay: as §2
[11] = substrate: CC1(C)S[C@@H]2[C@H](NC(=O)Cc3ccccc3)C(=O)N2[C@H]1C(=O)O; assay: as §2
[12] = substrate: C[C@@H](O)[C@H]1C(=O)N2C(C(=O)O)=C(SCCNC=N)C[C@H]12; assay: as §2
[13] = substrate: C[C@@H](O)[C@H]1C(=O)N2C(C(=O)O)=C(S[C@@H]3CN[C@H](C(=O)N(C)C)C3)[C@H](C)[C@H]12; assay: (§3) Kcat/Km ratio of Klebsiella pneumoniae SHV-1
[14] = substrate: C[C@@H](O)[C@H]1C(=O)N2C(C(=O)O)=C(S[C@@H]3CN[C@H](CNS(N)(=O)=O)C3)[C@H](C)[C@H]12; assay: as §3
[15] = substrate: O=C(Cc1cccs1)N[C@@H]1C(=O)N2C(C(=O)[O-])=C(C[n+]3ccccc3)CS[C@H]12; assay: as §3
[16] = substrate: CC1(C)S[C@@H]2[C@H](NC(=O)Cc3ccccc3)C(=O)N2[C@H]1C(=O)O; assay: as §3
[17] = substrate: C[C@@H](O)[C@H]1C(=O)N2C(C(=O)O)=C(SCCNC=N)C[C@H]12; assay: as §3
[18] = substrate: C[C@@H](O)[C@H]1C(=O)N2C(C(=O)O)=C(S[C@@H]3CN[C@H](C(=O)N(C)C)C3)[C@H](C)[C@H]12; assay: (§4) Activity of Klebsiella pneumoniae SHV-1
[19] = substrate: C[C@@H](O)[C@H]1C(=O)N2C(C(=O)O)=C(S[C@@H]3CN[C@H](CNS(N)(=O)=O)C3)[C@H](C)[C@H]12; assay: as §4
[20] = substrate: O=C(Cc1cccs1)N[C@@H]1C(=O)N2C(C(=O)[O-])=C(C[n+]3ccccc3)CS[C@H]12; assay: as §4
[21] = substrate: CC1(C)S[C@@H]2[C@H](NC(=O)Cc3ccccc3)C(=O)N2[C@H]1C(=O)O; assay: as §4
[22] = substrate: C[C@@H](O)[C@H]1C(=O)N2C(C(=O)O)=C(SCCNC=N)C[C@H]12; assay: as §4
[23] = substrate: C[C@@H](O)[C@H]1C(=O)N2C(C(=O)O)=C(S[C@@H]3CN[C@H](C(=O)N(C)C)C3)[C@H](C)[C@H]12; assay: (§5) Activity of Acinetobacter baumannii OXA-23
[24] = substrate: C[C@@H](O)[C@H]1C(=O)N2C(C(=O)O)=C(S[C@@H]3CN[C@H](CNS(N)(=O)=O)C3)[C@H](C)[C@H]12; assay: as §5
[25] = substrate: CC(C)(O/N=C(\C(=O)N[C@@H]1C(=O)N2C(C(=O)[O-])=C(C[n+]3ccccc3)CS[C@H]12)c1csc(N)n1)C(=O)O; assay: as §5
[26] = substrate: O=C(Cc1cccs1)N[C@@H]1C(=O)N2C(C(=O)[O-])=C(C[n+]3ccccc3)CS[C@H]12; assay: as §5
[27] = substrate: CC1(C)S[C@@H]2[C@H](NC(=O)Cc3ccccc3)C(=O)N2[C@H]1C(=O)O; assay: as §5
[28] = substrate: C[C@@H](O)[C@H]1C(=O)N2C(C(=O)O)=C(SCCNC=N)C[C@H]12; assay: as §5
Pseudomonas aeruginosa [29] = assay: Kcat/Km ratio of Pseudomonas aeruginosa SPM-1
Pseudomonas aeruginosa [30] = assay: Activity of Pseudomonas aeruginosa SPM-1
[31] = substrate: C[C@@H](O)[C@H]1C(=O)N2C(C(=O)O)=C(S[C@@H]3CN[C@H](C(=O)N(C)C)C3)[C@H](C)[C@H]12; conditions: Acinetobacter baumannii
Description: (§8) Kcat/Km ratio of Acinetobacter baumannii OXA-23

[32] = substrate: C[C@@H](O)[C@H]1C(=O)N2C(C(=O)O)=C(S[C@@H]3CN[C@H](CNS(N)(=O)=O)C3)[C@H](C)[C@H]12; conditions: Acinetobacter baumannii
Description: as §8

[33] = substrate: O=C(Cc1cccs1)N[C@@H]1C(=O)N2C(C(=O)[O-])=C(C[n+]3ccccc3)CS[C@H]12; conditions: Acinetobacter baumannii
Description: as §8

[34] = substrate: CC1(C)S[C@@H]2[C@H](NC(=O)Cc3ccccc3)C(=O)N2[C@H]1C(=O)O; conditions: Acinetobacter baumannii
Description: as §8

[35] = substrate: C[C@@H](O)[C@H]1C(=O)N2C(C(=O)O)=C(SCCNC=N)C[C@H]12; conditions: Acinetobacter baumannii
Description: as §8

[36] = substrate: CC(C)(O/N=C(\C(=O)N[C@@H]1C(=O)N2C(C(=O)[O-])=C(C[n+]3ccccc3)CS[C@H]12)c1csc(N)n1)C(=O)O; assay: Kcat/Km ratio of Pseudomonas aeruginosa SPM-1
[37] = substrate: CC(C)(O/N=C(\C(=O)N[C@@H]1C(=O)N2C(C(=O)[O-])=C(C[n+]3ccccc3)CS[C@H]12)c1csc(N)n1)C(=O)O; assay: Activity of Pseudomonas aeruginosa SPM-1
[38] = substrate: C[C@@H](O)[C@H]1C(=O)N2C(C(=O)O)=C(S[C@@H]3CN[C@H](C(=O)N(C)C)C3)[C@H](C)[C@H]12; assay: (§6) Activity of Escherichia coli TEM-1
[39] = substrate: C[C@@H](O)[C@H]1C(=O)N2C(C(=O)O)=C(S[C@@H]3CN[C@H](CNS(N)(=O)=O)C3)[C@H](C)[C@H]12; assay: as §6
[40] = substrate: C[C@@H](O)[C@H]1C(=O)N2C(C(=O)O)=C(S[C@@H]3CN[C@H](C(=O)N(C)C)C3)[C@H](C)[C@H]12; assay: (§7) Kcat/Km ratio of Escherichia coli TEM-1
[41] = substrate: C[C@@H](O)[C@H]1C(=O)N2C(C(=O)O)=C(S[C@@H]3CN[C@H](CNS(N)(=O)=O)C3)[C@H](C)[C@H]12; assay: as §7

B1: Beta-lactamase IMP-1 (Pseudomonas aeruginosa), Q8G9Q0 (protein)
chain: MNSPKSRALLGFMGAFCLLLVAGAPLSAKSSDHVDLPYNLTATKIDSDVFVVTDRDFYSSNVLVAKMLDGTVVIVSSPFENLGTQTLMDWVAKTMKPKKVVAINTHFHLDGTGGNEIYKKMGAETWSSDLTKQLRLEENKKDRIKAAEFYKNEDLKRRILSSHPVPADNVFDLKQGKVFSFSNELVEVSFPGPAHSPDNVVVYFPKKKLLFGGCMIKPKELGYLGDANVKAWPDSARRLKKFDAKIVIPGHGEWGGPEMVNKTIKVAEKAVGEMRL
What does the source list for B1?
kcat/Km [1]: 4e+06 M⁻¹ s⁻¹; kcat/Km [2]: 3.7e+06 M⁻¹ s⁻¹; kcat/Km [3]: 740000 M⁻¹ s⁻¹; kcat/Km [4]: 1.3e+07 M⁻¹ s⁻¹; kcat/Km [5]: 2.5e+06 M⁻¹ s⁻¹; kcat/Km [6]: 5.8e+06 M⁻¹ s⁻¹; Km [7]: 6.5 µM; kcat [7]: 26 s⁻¹; Km [8]: 30 µM; kcat [8]: 110 s⁻¹; Km [9]: 50 µM; kcat [9]: 37 s⁻¹; Km [10]: 21 µM; kcat [10]: 270 s⁻¹; Km [11]: 550 µM; kcat [11]: 1400 s⁻¹; Km [12]: 33 µM; kcat [12]: 190 s⁻¹

B2: Beta-lactamase SHV-1 (Klebsiella pneumoniae), P0AD64 (protein)
chain: MRYIRLCIISLLATLPLAVHASPQPLEQIKLSESQLSGRVGMIEMDLASGRTLTAWRADERFPMMSTFKVVLCGAVLARVDAGDEQLERKIHYRQQDLVDYSPVSEKHLADGMTVGELCAAAITMSDNSAANLLLATVGGPAGLTAFLRQIGDNVTRLDRWETELNEALPGDARDTTTPASMAATLRKLLTSQRLSARSQRQLLQWMVDDRVAGPLIRSVLPAGWFIADKTGAGERGARGIVALLGPNNKAERIVVIYLRDTPASMAERNQQIAGIGAALIEHWQR
How did the kcat/Km [13] turn out when B2 was run?
The kcat/Km was 400 M⁻¹ s⁻¹.

What about the kcat/Km [14] of the same protein?
The kcat/Km was 700 M⁻¹ s⁻¹.

And the kcat/Km [15]?
Its kcat/Km is 2.6e+06 M⁻¹ s⁻¹.

What about the kcat/Km [16] of the same protein?
The kcat/Km was 6.9e+07 M⁻¹ s⁻¹.

And the kcat/Km [17]?
The kcat/Km was 2400 M⁻¹ s⁻¹.

And the Km [18]?
The Km was 4.2 µM.

And the kcat [18]?
The kcat was 0.0017 s⁻¹.

And the Km [19]?
Its Km is 4.3 µM.

What about the kcat [19] of the same protein?
Its kcat is 0.003 s⁻¹.

What about the kcat [20] of the same protein?
Its kcat is 410 s⁻¹.

And the kcat [21]?
The kcat was 1100 s⁻¹.

What about the Km [22] of the same protein?
The Km was 23 µM.

What about the kcat [22] of the same protein?
The kcat was 0.054 s⁻¹.

B3: Beta-lactamase OXA-23 (Acinetobacter baumannii), Q9L4P2 (protein)
chain: MNKYFTCYVVASLFLSGCTVQHNLINETPSQIVQGHNQVIHQYFDEKNTSGVLVIQTDKKINLYGNALSRANTEYVPASTFKMLNALIGLENQKTDINEIFKWKGEKRSFTAWEKDMTLGEAMKLSAVPVYQELARRIGLDLMQKEVKRIGFGNAEIGQQVDNFWLVGPLKVTPIQEVEFVSQLAHTQLPFSEKVQANVKNMLLLEESNGYKIFGKTGWAMDIKPQVGWLTGWVEQPDGKIVAFALNMEMRSEMPASIRNELLMKSLKQLNII
Which results are given for B3?
Km [23]: 2.5 µM; kcat [23]: 0.13 s⁻¹; Km [24]: 1.8 µM; kcat [24]: 0.2 s⁻¹; kcat [25]: < 0.0042 s⁻¹; Km [26]: 1300 µM; kcat [26]: 450 s⁻¹; Km [27]: 13 µM; kcat [27]: 530 s⁻¹; Km [28]: 1.3 µM; kcat [28]: 0.92 s⁻¹; kcat/Km (Pseudomonas aeruginosa [29]): 550000 M⁻¹ s⁻¹; Km (Pseudomonas aeruginosa [30]): 82 µM; kcat (Pseudomonas aeruginosa [30]): 45 s⁻¹; kcat/Km [31]: 52000 M⁻¹ s⁻¹; kcat/Km [32]: 110000 M⁻¹ s⁻¹; kcat/Km [33]: 350000 M⁻¹ s⁻¹; kcat/Km [34]: 4.1e+07 M⁻¹ s⁻¹; kcat/Km [35]: 50000 M⁻¹ s⁻¹; kcat/Km [36]: 640000 M⁻¹ s⁻¹; Km [37]: 120 µM; kcat [37]: 77 s⁻¹

B4: Beta-lactamase TEM (Escherichia coli), P62593 (protein)
chain: MSIQHFRVALIPFFAAFCLPVFAHPETLVKVKDAEDQLGARVGYIELDLNSGKILESFRPEERFPMMSTFKVLLCGAVLSRVDAGQEQLGRRIHYSQNDLVEYSPVTEKHLTDGMTVRELCSAAITMSDNTAANLLLTTIGGPKELTAFLHNMGDHVTRLDRWEPELNEAIPNDERDTTMPAAMATTLRKLLTGELLTLASRQQLIDWMEADKVAGPLLRSALPAGWFIADKSGAGERGSRGIIAALGPDGKPSRIVVIYTTGSQATMDERNRQIAEIGASLIKHW
How did the Km [38] turn out when B4 was run?
The Km was 15 µM.

What about the kcat [38] of the same protein?
Its kcat is 0.00023 s⁻¹.

And the Km [39]?
Its Km is 5.4 µM.

And the kcat [39]?
The kcat was 0.00021 s⁻¹.

And the kcat/Km [40]?
Its kcat/Km is 15 M⁻¹ s⁻¹.

What about the kcat/Km [41] of the same protein?
Its kcat/Km is 39 M⁻¹ s⁻¹.
